In patent publication US20260275312, “CRISPR NUCLEASE POLYPEPTIDES AND GENE EDITING SYSTEMS COMPRISING SUCH” (ARBOR BIOTECHNOLOGIES, INC., published 2026):

Molecular target: T1, Nuclease S H280R/T72R/I845R (synthetic construct, H280R,T72R,I845R)
T1 chain: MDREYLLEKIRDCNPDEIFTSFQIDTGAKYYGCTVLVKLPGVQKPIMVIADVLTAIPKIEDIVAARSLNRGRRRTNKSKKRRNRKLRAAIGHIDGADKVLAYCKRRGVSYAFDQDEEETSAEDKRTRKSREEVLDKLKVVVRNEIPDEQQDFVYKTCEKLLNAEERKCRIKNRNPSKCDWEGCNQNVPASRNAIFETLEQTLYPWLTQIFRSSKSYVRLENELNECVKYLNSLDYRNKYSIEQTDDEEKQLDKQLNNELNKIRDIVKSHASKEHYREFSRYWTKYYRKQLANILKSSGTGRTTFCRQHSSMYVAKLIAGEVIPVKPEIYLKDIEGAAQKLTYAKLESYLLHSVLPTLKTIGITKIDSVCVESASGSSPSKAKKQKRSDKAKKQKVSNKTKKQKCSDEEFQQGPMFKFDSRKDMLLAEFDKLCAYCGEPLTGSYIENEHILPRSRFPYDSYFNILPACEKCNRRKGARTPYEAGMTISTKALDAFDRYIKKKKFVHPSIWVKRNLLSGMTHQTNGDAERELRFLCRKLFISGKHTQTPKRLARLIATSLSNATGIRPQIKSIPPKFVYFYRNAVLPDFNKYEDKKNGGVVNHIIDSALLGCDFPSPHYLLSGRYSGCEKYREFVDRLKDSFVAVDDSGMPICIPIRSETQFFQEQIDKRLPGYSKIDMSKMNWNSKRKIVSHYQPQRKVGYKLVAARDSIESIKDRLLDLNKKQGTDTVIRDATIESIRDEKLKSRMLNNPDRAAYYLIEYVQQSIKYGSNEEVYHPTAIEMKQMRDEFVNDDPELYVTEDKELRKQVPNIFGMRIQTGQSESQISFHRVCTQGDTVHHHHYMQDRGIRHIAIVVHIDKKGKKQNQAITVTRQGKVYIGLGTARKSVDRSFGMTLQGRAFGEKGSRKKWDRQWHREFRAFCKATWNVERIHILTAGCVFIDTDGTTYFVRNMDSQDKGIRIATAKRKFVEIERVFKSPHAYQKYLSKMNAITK
Assay: cell_activity; HEK293T; PAM AACC
Settings: tags: N-term SV40 NLS, XTEN linker + C-term nucleoplasmin NLS
Procedure: HEK293T cells were transfected with plasmids expressing the Nuclease S polypeptides and the gRNAs provided herein following the methods provided in Example 1 above. Gene editing efficiencies were determined by NGS following the methods also provided in Example 1. The NGS results were analyzed also following the methods provided in Example 1 above.
Each Nuclease S variant was cloned as described in Example 6. HEK293T cells were further transfected with a plasmid encoding a Nuclease S variant and a plasmid encoding an RNA guide of Table 11, followed by NGS analysis, as described in Example 5. For each target, indel ratios, referring to the percentage of NGS reads comprising indels, were calculated for the reference Nuclease S (SEQ ID NO: 49) and for each Nuclease S variant. The indel ratios shown in Table 13 were calculated as the average of two bioreplicates, each of which contained two technical replicates.

B1: S AAVS1-T7 RNA guide ; AAVS1-T7 target (S) (ssRNA ; dsDNA)
RNA: GGCUAUAAUCCAUGCUGACCGUUGUAUUCGGAUGGGAGUAAAAGGUUGAGUACACCUGGAAACAAAACGACAUAAAGGUGUUCUCCCAUCUGUGUACAAAGAGCAGAUAUAUGAGUUGAUAAGUAAUAUGUUGCACGUAUGGACUUUGACAGUCUGUACCUCUGCGUGAAAGACAUAUUGCGUUAUUCAUAUAUCUGUGAGUCUGUUCUAAAUUUAAAGGUUUAGGGAA
DNA 1: GGCTATAATCCATGCTGACC
DNA 2: GGTCAGCATGGATTATAGCC
activity: 0.333 indel ratio
